Reference: article PMC12394075

Molecular target: HA-GSGS-tagged rat mGluR2 with TAG at Ala548 (CRD linker sensor) (rat) (UniProt P31421)

Chain of Heterotrimeric Gi1 (P63096 whole entry, looked up, one chain of several): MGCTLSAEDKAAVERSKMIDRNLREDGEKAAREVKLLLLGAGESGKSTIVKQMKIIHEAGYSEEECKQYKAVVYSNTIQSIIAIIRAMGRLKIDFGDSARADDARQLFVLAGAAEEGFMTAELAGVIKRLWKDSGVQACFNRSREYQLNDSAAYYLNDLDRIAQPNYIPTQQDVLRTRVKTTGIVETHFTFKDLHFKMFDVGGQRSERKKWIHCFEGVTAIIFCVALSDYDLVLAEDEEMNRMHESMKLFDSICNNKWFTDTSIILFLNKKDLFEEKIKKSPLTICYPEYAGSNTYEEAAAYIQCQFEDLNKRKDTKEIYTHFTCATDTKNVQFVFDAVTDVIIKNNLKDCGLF

smFRET of the CRD sensor with 10 mM glutamate and 4–5 µM Gi1 heterotrimer: occupancy of the high-FRET state (E ~ 0.85): 20%
Substance: Heterotrimeric Gi1 (from UniProt P63096 1-354) (complex)
